{"source": "patent US20250243290A1", "assay_in_all_cases": "peptide-array ELISA [Con't]", "key": {"[1]": {"molecular_target": "2LS2…2RP"}, "[2]": {"molecular_target": "2…", "sequence (peptide, as listed by the source)": "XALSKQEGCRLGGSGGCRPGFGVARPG"}, "[3]": {"molecular_target": "CAPLRK2…2APGTFSN"}, "[4]": {"molecular_target": "CG2RL2APLRK2…2TSTSPTRC"}, "[5]": {"molecular_target": "E2LS2…2RPG"}, "[6]": {"molecular_target": "E2LS2…2TREQNRIC"}, "[7]": {"molecular_target": "KQEGCRL2…", "sequence (peptide, as listed by the source)": "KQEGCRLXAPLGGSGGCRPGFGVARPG"}, "[8]": {"molecular_target": "LWNWVPE2…2T2"}, "[9]": {"molecular_target": "PE2LS2…2…"}, "[10]": {"molecular_target": "PE2LSCGSR2…2"}, "[11]": {"molecular_target": "RLCAPLRK2…2APGTFSN"}, "[12]": {"molecular_target": "SKQEGCRL2…", "sequence (peptide, as listed by the source)": "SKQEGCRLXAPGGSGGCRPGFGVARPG"}, "[13]": {"molecular_target": "TSDVV2…"}, "[14]": {"molecular_target": "VPE2LS2…2RPG"}, "[15]": {"molecular_target": "VPE2LS2…2…"}, "[16]": {"molecular_target": "WNWVPE2…", "sequence (peptide, as listed by the source)": "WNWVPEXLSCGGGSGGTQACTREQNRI"}, "[17]": {"molecular_target": "WVPE2…2T"}, "[18]": {"molecular_target": "…2RPG"}, "[19]": {"molecular_target": "…2RP", "sequence (peptide, as listed by the source)": "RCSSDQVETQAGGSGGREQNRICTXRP"}, "[20]": {"molecular_target": "…2…2RPG"}, "[21]": {"molecular_target": "…2…2R"}}, "note": "Values joined by “and” are separate entries in the source; they are usually repeats but may differ in a detail not shown here. Equal values may be shown once.", "data": [{"substance": "agonistic TNFR2 antibody MR2-1", "values": [{"measurement": "Raw luminescence data", "setting": "[1]", "result": 362}, {"measurement": "Raw luminescence data", "setting": "[2]", "result": 351}, {"measurement": "Raw luminescence data", "setting": "[3]", "result": 293}, {"measurement": "Raw luminescence data", "setting": "[4]", "result": 287}, {"measurement": "Raw luminescence data", "setting": "[5]", "result": 314}, {"measurement": "Raw luminescence data", "setting": "[6]", "result": 299}, {"measurement": "Raw luminescence data", "setting": "[7]", "result": 352}, {"measurement": "Raw luminescence data", "setting": "[8]", "result": 353}, {"measurement": "Raw luminescence data", "setting": "[9]", "result": 317}, {"measurement": "Raw luminescence data", "setting": "[10]", "result": 312}, {"measurement": "Raw luminescence data", "setting": "[11]", "result": 320}, {"measurement": "Raw luminescence data", "setting": "[12]", "result": 288}, {"measurement": "Raw luminescence data", "setting": "[13]", "result": 323}, {"measurement": "Raw luminescence data", "setting": "[14]", "result": 295}, {"measurement": "Raw luminescence data", "setting": "[15]", "result": 301}, {"measurement": "Raw luminescence data", "setting": "[16]", "result": 291}, {"measurement": "Raw luminescence data", "setting": "[17]", "result": 312}, {"measurement": "Raw luminescence data", "setting": "[18]", "result": "341 and 293"}, {"measurement": "Raw luminescence data", "setting": "[19]", "result": 324}, {"measurement": "Raw luminescence data", "setting": "[20]", "result": 304}, {"measurement": "Raw luminescence data", "setting": "[21]", "result": 299}]}]}
